Measurements published in US20200017552A1.
Where two headings read alike, the source gives them in different places.

Experiments:
[1] = target: HA of Ft. Monmouth influenza virus (on virions) (influenza virus strain Ft. Monmouth); test: cell-based or functional assay
[2] = target: HA of Ft. Monmouth influenza virus (on virions) (influenza virus strain Ft. Monmouth); test: cell-based or functional assay; remark: listed apart in the source

CIEQSFTTLFACQTAAEIWRAFGYTVKIMVDNGNCRLHVC (designed binder, modifications not checked) [HB1.6928.2.3]
EC50 values for inhibition of viral replication in vitro [1]: 0.02 ng/mL

TIEQSFTTLFAAQTAAEIWRAFGYTVKIMQDNGNWRLHVT (designed binder) [CS15990 A13_r31_TAWQT Thr-40-Thr]
EC50 values for inhibition of viral replication in vitro [2]: 2 ng/mL
